Details in all cases: both partners purified
The target of assay [1] is T1, non-glycosylated HEV GT 3 pORF2 P domain (Hepatitis E virus genotype 3, …).
T1 construct: also called non-glycosylated GT 3 P domain; HEV GT3 P domain; not shown: double strep tag, N-terminal, kept
The assay is described as follows: SPR.

The target of assay [2] is T2, non-glycosylated HEV GT 1 pORF2 P domain (Hepatitis E virus genotype 1, isolate …, UniProt P33426, strain).
T2 construct: also called HEV GT 1 P domain; source: Drosophila S2 cells, purified from cell lysates (Strep-Tactin XT, SEC); not shown: double strep tag, N-terminal, kept
The assay is described as follows: SPR.

Assay [3] deals with T3, non-glycosylated HEV GT 2 pORF2 P domain (Hepatitis E virus genotype 2, isolate …, UniProt Q03500, strain).
T3 construct: also called HEV GT 2 P domain; source: Drosophila S2 cells, purified from cell lysates (Strep-Tactin XT, SEC); not shown: double strep tag, N-terminal, kept
Kind of assay: SPR.

Assay [4] concerns the target T4, non-glycosylated HEV GT 4 pORF2 P domain (Hepatitis E virus genotype 4, isolate …, UniProt Q9IVZ8, strain).
T4 construct: also called HEV GT 4 P domain; source: Drosophila S2 cells, purified from cell lysates (Strep-Tactin XT, SEC); not shown: double strep tag, N-terminal, kept
Kind of assay: SPR.

Assay [5] addresses T5, non-glycosylated HEV GT 3 pORF2 P domain dimer (amino acids 456-660), expressed in the cytosol (Hepatitis E virus genotype 3, isolate …, strain).
T5 construct: not shown: double strep tag, N-terminal, kept
The assay is described as follows: ELISA; plates coated with 100 ng P domain per well in PBS overnight at 4 °C; antibody (IgG) at 2 μg/ml, 1 h at room temperature; HRP-conjugated goat anti-human antibody.

Assay [6] deals with T6, glycosylated HEV GT 3 pORF2 P domain dimer (amino acids 456-660), secreted, carrying a glycan at N562 (Hepatitis E virus genotype 3, isolate …, strain).
T6 construct: not shown: double strep tag, N-terminal, kept
Described as above.

Assay [7] concerns the target T7, non-glycosylated rat HEV pORF2 P domain (Rat hepatitis E virus, R68/DEU/2009 in …).
T7 construct: not shown: double strep tag, N-terminal, kept
The assay is described as above.

In assay [8] the target is T5, non-glycosylated HEV GT 3 pORF2 P …. Kind of assay: SPR.
In assay [9] the target is T6, glycosylated HEV GT 3 pORF2 P domain …. The assay is described as follows: SPR.
Assay [10] deals with T8, non-glycosylated rat HEV pORF2 P domain (Rat hepatitis E virus, R68/DEU/2009 in …, strain).
T8 construct: also called rat HEV P domain; source: Drosophila S2 cells, purified from cell lysates (Strep-Tactin XT, SEC); not shown: double strep tag, N-terminal, kept
Kind of assay: SPR.

In assay [11] the target is T7, non-glycosylated rat HEV pORF2 P domain. Kind of assay: SPR.
Assay [12] has as its target T9, non-glycosylated HEV GT 2 pORF2 P domain (Hepatitis E virus genotype 2, isolate …, UniProt Q03500, strain).
T9 construct: also called GT 2 P domain; not shown: double strep tag, N-terminal, kept
The assay is described as follows: ELISA; plates coated with 100 ng P domain per well in PBS overnight at 4 °C; antibody (IgG) at 2 μg/ml, 1 h at room temperature; HRP-conjugated goat anti-human antibody.

The target in assay [13] is T10, non-glycosylated HEV GT 4 pORF2 P domain (Hepatitis E virus genotype 4, isolate …, UniProt Q9IVZ8, strain).
T10 construct: also called GT 4 P domain; not shown: double strep tag, N-terminal, kept
The description is as above.

B1: scFv p61.15 (scFv, V domains shown)
VH: QVQLVQSGAEVKKPGASVKVSCKASGYTFTNYFMHWVRQAPGQGLEWMGVFNPRGGSTTYAQKFQGRITMTSDPSTSTVYMELTSLTSEDTAMYYCARMGSVTGPVGHRWLDPWGQGTLVTVSS
VL: EIVLTQSPATLSLSPGERAALSCRASQSVDTYLAWYQQKPGQAPRLLIYDASTRAPGIPARFSGSGSGTDFTLTISSLEPEDFAVYYCQQRYNWPPITFGQGTRLEIK
notes: also called bnAb p61.15; nAb p61.15
Regarding B1, the Kd turned out to be 0.0816 nM in [1], 1.51 nM in assay [2], 0.896 nM in assay [3] and 0.154 nM in assay [4]. Moreover, the koff came out at 2.56e-05 s⁻¹ in assay [1], 0.000604 s⁻¹ in [2], 0.000585 s⁻¹ in assay [3] and 0.000142 s⁻¹ in [4].

B2: p61.15 IgG1 (antibody, V domains shown)
VH: QVQLVQSGAEVKKPGASVKVSCKASGYTFTNYFMHWVRQAPGQGLEWMGVFNPRGGSTTYAQKFQGRITMTSDPSTSTVYMELTSLTSEDTAMYYCARMGSVTGPVGHRWLDPWGQGTLVTVSS
VL: EIVLTQSPATLSLSPGERAALSCRASQSVDTYLAWYQQKPGQAPRLLIYDASTRAPGIPARFSGSGSGTDFTLTISSLEPEDFAVYYCQQRYNWPPITFGQGTRLEIK
notes: also called nAb p61.15; bnAb p61.15
For the molecule B2, the binding result in assay [5] is listed as “binds”; in [6], “binds”; in assay [7], “no binding (tested: 2 μg/ml)”.

B3: p61.15 scFv (SPR analyte) (scFv, V domains shown)
VH: QVQLVQSGAEVKKPGASVKVSCKASGYTFTNYFMHWVRQAPGQGLEWMGVFNPRGGSTTYAQKFQGRITMTSDPSTSTVYMELTSLTSEDTAMYYCARMGSVTGPVGHRWLDPWGQGTLVTVSS
VL: EIVLTQSPATLSLSPGERAALSCRASQSVDTYLAWYQQKPGQAPRLLIYDASTRAPGIPARFSGSGSGTDFTLTISSLEPEDFAVYYCQQRYNWPPITFGQGTRLEIK
notes: also called scFv-p61.15
As for B3, the binding result in assay [8] and in [9] was “binds” each time.

B4: scFv p60.15 (scFv, V domains shown)
VH: EVQLVQSGAELKKPGESLRISCKGSGYDFANYWIGWVRQMPGKGLEWMGIIYPRDSDIRYSPSFQGQVTISADKSISTAYLQLSSLKASDTAMYYCARHLRGLRLGELFPFDYWGQGTLVTVSS
VL: AIQLTQSPSSLSASVGDSVTITCRASQDIFSYLAWYQQKPGKAPKLLIYAASTLQSGVPSRFSGSGSGTDFTLTISSLQPEDFATYYCQQLNRYPFAFGPGTKVDIK
notes: also called bnAb p60.15; nAb p60.15
As for B4, in assay [1], binding was put at a Kd of 0.166 nM and the koff was 5.18e-05 s⁻¹.

B5: p60.15 IgG1 (antibody, V domains shown)
VH: EVQLVQSGAELKKPGESLRISCKGSGYDFANYWIGWVRQMPGKGLEWMGIIYPRDSDIRYSPSFQGQVTISADKSISTAYLQLSSLKASDTAMYYCARHLRGLRLGELFPFDYWGQGTLVTVSS
VL: AIQLTQSPSSLSASVGDSVTITCRASQDIFSYLAWYQQKPGKAPKLLIYAASTLQSGVPSRFSGSGSGTDFTLTISSLQPEDFATYYCQQLNRYPFAFGPGTKVDIK
notes: also called nAb p60.15; bnAb p60.15
Take B5: the binding result in assay [7] was “no binding (tested: 2 μg/ml)”.

B6: scFv p60.1 (scFv, V domains shown)
VH: EVQLQQSGPGLVKPSQTLSLICAISGDSVSTINAAWNWIRQSPSRGLEWLGRTYYRSKWYHEYATSVQGRIIITPDTSKNQFSLQLNSVTPEDSAVYFCARDRGPTPFDFWGQGTLVTVSS
VL: DIQMTQSPSSLSASVGDSVTITCRANQSISRSLNWYQQQPGKAPNLLIYAASHLHSGVSSRFSGSGSGADFALTISSLQPEDFATYHCQQSFVTPFTFGPGTKVDLK
notes: also called bnAb p60.1; nAb p60.1
Take B6: the Kd came out at 4.93 µM in assay [10], 0.0238 nM in assay [2], 0.128 nM in [3] and 0.0382 nM in [4]. Moreover, the koff in assay [10] is 0.456 s⁻¹; in assay [2], 2.56e-05 s⁻¹; in assay [3] it was 8.16e-05 s⁻¹; in [4], 5.14e-05 s⁻¹.

B7: p60.1 scFv (SPR analyte) (scFv, V domains shown)
VH: EVQLQQSGPGLVKPSQTLSLICAISGDSVSTINAAWNWIRQSPSRGLEWLGRTYYRSKWYHEYATSVQGRIIITPDTSKNQFSLQLNSVTPEDSAVYFCARDRGPTPFDFWGQGTLVTVSS
VL: DIQMTQSPSSLSASVGDSVTITCRANQSISRSLNWYQQQPGKAPNLLIYAASHLHSGVSSRFSGSGSGADFALTISSLQPEDFATYHCQQSFVTPFTFGPGTKVDLK
notes: also called scFv-p60.1
On to B7, for which, in assay [11], the “fold lower affinity than to the other four P domains” value was roughly 1000 fold.

B8: murine bnAb 8G12 (antibody, V domains shown)
VH: QLQQSGPELVKPGASVKISCKASGYTFTDFNMHWVKQSHGKSLEWIGYIYPYNGITGQNQKFKSKATLTVDNSSSSAYMELRSLTSEDSAVYYCARERFGVGNNYAWFTYWGQGTLVTVSS
VL: DIQMTQSPASLSVSVGETVTITCRASENIYSNLVWYQQKQGKSPQVLVYAATNLPDGVPSRFSGSGSGTQYSLKINSLQSEDSGSYYCQHFWETPFTFGSGTKLEIK
notes: also called control bnAb 8G12
As for B8, the binding result was “binds” in assay [5], “binds” in assay [12], “binds” in [13] and “no binding” in assay [7].

B9: scFv p60.12 (scFv, V domains shown)
VH: QVQLVQSGAEVKKPGSSVKVSCKASGDTFSSYVISWVRQAPGQGLEWMGGIIPIIGTANYAPKFQDTVTITADKSTNTVYMEMRSLRSEDTAVYYCASNVQLQRRGNWFDPWGQGTLVTVSS
VL: QSALTQPASVSGSPGQSITISCTGTSSDIGDYNFVSWYQQHPGKAPKLMIFDVTNRPSGVSNRFSGSKSGNTASLTISGLQVEDEADYYCSSYTSTNTPVVFGGGTKLTVL
notes: also called bnAb p60.12; nAb p60.12
Consider B9, for which the Kd amounted to 5.59 µM in assay [10], 3.29 nM in [2], 0.509 nM in assay [3] and 8.75 nM in [4]. Also, the koff was 0.246 s⁻¹ in [10], 0.000325 s⁻¹ in [2], 2.96e-05 s⁻¹ in assay [3] and 0.000609 s⁻¹ in assay [4].

B10: p60.12 scFv (SPR analyte) (scFv, V domains shown)
VH: QVQLVQSGAEVKKPGSSVKVSCKASGDTFSSYVISWVRQAPGQGLEWMGGIIPIIGTANYAPKFQDTVTITADKSTNTVYMEMRSLRSEDTAVYYCASNVQLQRRGNWFDPWGQGTLVTVSS
VL: QSALTQPASVSGSPGQSITISCTGTSSDIGDYNFVSWYQQHPGKAPKLMIFDVTNRPSGVSNRFSGSKSGNTASLTISGLQVEDEADYYCSSYTSTNTPVVFGGGTKLTVL
B10: the “fold lower affinity than to the other four P domains” value in [11] is roughly 1000 fold.

For the origin of these results see PMC11865592 (Nature Communications, 2025).
